Assay [1] concerns the target recombinant human OX40 fused to a His-tag (Acro Biosystems, cat. no. OX0-H5224) (human) (UniProt P43489). As to the kind of experiment: BLI cross-block; first Ab (competitor): IgG1-CD134-GBR830.
Assay [2] has the same target. As to the kind of experiment: BLI cross-block; first Ab (competitor): IgG1-CD134-RG7888.
Assay [3] shares this target. The experiment in a line: BLI cross-block; first Ab (competitor): IgG1-CD134-MEDI0562.
Assay [4] shares this target. The experiment in a line: BLI cross-block; first Ab (competitor): IgG1-CD134-IBI101.
The target is the same in assay [5]. As to the kind of experiment: BLI cross-block; first Ab (competitor): IgG1-CD134-003.
Assay [6] has the same target. As to the kind of experiment: BLI cross-block; first Ab (competitor): IgG1-CD134-h3C8.
The target is the same in assay [7]. The experiment in a line: BLI cross-block; first Ab (competitor): IgG1-CD134-49B4-RRE.
The target is the same in assay [8]. The experiment in a line: BLI cross-block; first Ab (competitor): IgG1-CD134-11D4.
Assay [9] has the same target. The experiment in a line: BLI cross-block; first Ab (competitor): IgG1-CD134-INCAGN1949.
Assay [10] has the same target. The experiment in a line: BLI cross-block; first Ab (competitor): IgG1-CD134-007.
Assay [11] shares this target. The experiment in a line: BLI cross-block; first Ab (competitor): IgG1-CD134-003-HC6LC2-RR.
The target is the same in assay [12]. As to the kind of experiment: BLI cross-block; first Ab (competitor): IgG1-CD134-012.
For assay [13] the target is unchanged. As to the kind of experiment: BLI cross-block; first Ab (competitor): IgG1-CD134-ABBV368.
For assay [14] the target is unchanged. The experiment in a line: BLI cross-block; first Ab (competitor): IgG1-CD134-A4453.
For assay [15] the target is unchanged. As to the kind of experiment: BLI cross-block; first Ab (competitor): IgG1-CD134-Hu106.
For assay [16] the target is unchanged. The experiment in a line: BLI cross-block; first Ab (competitor): IgG1-CD134-SF2.

The values below come from patent publication US20240400703A1.

Sequence of recombinant human OX40 fused to a His-tag (Acro Biosystems, cat. no. OX0-H5224) (human) (P43489 29-214 limits assumed): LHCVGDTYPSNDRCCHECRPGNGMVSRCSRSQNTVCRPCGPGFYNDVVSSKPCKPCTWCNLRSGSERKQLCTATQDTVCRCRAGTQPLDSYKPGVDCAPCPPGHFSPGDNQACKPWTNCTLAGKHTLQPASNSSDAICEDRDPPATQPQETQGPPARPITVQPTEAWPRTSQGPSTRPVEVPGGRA

B1: IgG1-CD134-ABBV368 (antibody, INN chains, looked up, V domains shown)
VH: EVQLVESGGGLVQPGGSLRLSCAASGFTFSRYGMSWVRQAPGKGLELVATINSNGGRTYYPDSVKGRFTISRDNAKNSLYLQMNSLRAEDTAVYYCAREGITTAYAMDYWGQGTTVTVSS
VL: DIVMTQSPDSLAVSLGERATINCKASQSVDYDGDSYMHWYQQKPGQPPKLLIYAASILESGVPDRFSGSGSGTDFTLTISSLQAEDVAVYYCQQSNEDPRTFGGGTKVEIK
modifications: IgG1
For B1, the association response was 0.01 nm in assay [1]; 0.02 nm in assay [2]; -0.01 nm in assay [3]; 0.01 nm in [4]; 1.27 nm in assay [5]; -0.03 nm in [6]. Besides, the association response was found to be 0 nm in assay [7]; 0.13 nm in [8]; 0.01 nm in assay [9]; 0 nm in assay [10]; 1.68 nm in [11]; 0.87 nm in assay [12]. Besides, the association response is -0.04 nm in assay [13], 0.29 nm in assay [14], 0 nm in assay [15] and 0.04 nm in [16].

B2: IgG1-CD134-MEDI0562 (antibody, INN chains, looked up, V domains shown)
VH: QVQLQESGPGLVKPSQTLSLTCAVYGGSFSSGYWNWIRKHPGKGLEYIGYISYNGITYHNPSLKSRITINRDTSKNQYSLQLNSVTPEDTAVYYCARYKYDYDGGHAMDYWGQGTLVTVSS
VL: DIQMTQSPSSLSASVGDRVTITCRASQDISNYLNWYQQKPGKAPKLLIYYTSKLHSGVPSRFSGSGSGTDYTLTISSLQPEDFATYYCQQGSALPWTFGQGTKVEIK
modifications: IgG1
In the case of B2, the association response in [1] is 0.32 nm; in assay [2], 0 nm; in assay [3], 0 nm; in [4] it was 0.28 nm; in assay [5], 1.39 nm; in [6] it was 0.54 nm. The association response turned out to be 0.15 nm in assay [7]; 0.14 nm in assay [8]; 0 nm in assay [9]; 1.14 nm in assay [10]; 1.73 nm in assay [11]; 0.82 nm in assay [12]. The association response in [13] was -0.02 nm; in assay [14], 0.41 nm; in [15], 0.69 nm; in assay [16], 0.01 nm.

B3: IgG1-CD134-RG7888 (antibody, INN chains, looked up, V domains shown)
VH: EVQLVQSGAEVKKPGASVKVSCKASGYTFTDSYMSWVRQAPGQGLEWIGDMYPDNGDSSYNQKFRERVTITRDTSTSTAYLELSSLRSEDTAVYYCVLAPRWYFSVWGQGTLVTVSS
VL: DIQMTQSPSSLSASVGDRVTITCRASQDISNYLNWYQQKPGKAPKLLIYYTSRLRSGVPSRFSGSGSGTDFTLTISSLQPEDFATYYCQQGHTLPPTFGQGTKVEIK
modifications: IgG1
With B3, the association response came out at 0.26 nm in assay [1]; 0.02 nm in [2]; 0.02 nm in assay [3]; 0.23 nm in assay [4]; 0.66 nm in [5]; 0.41 nm in [6]. For the same molecule, the association response turned out to be 0.02 nm in [7]; 0.11 nm in assay [8]; 0.02 nm in assay [9]; 0.47 nm in [10]; 1.38 nm in assay [11]; 0.54 nm in assay [12]. Further, the association response came out at 0.01 nm in [13], 0.47 nm in [14], 0.1 nm in assay [15] and 0.01 nm in assay [16].

B4: IgG1-CD134-Hu106 (antibody, from another filing, V domains shown)
VH: QVQLVQSGSELKKPGASVKVSCKASGYTFTDYSMHWVRQAPGQGLKWMGWINTETGEPTYADDFKGRFVFSLDTSVSTAYLQISSLKAEDTAVYYCANPYYDYVSYYAMDYWGQGTTVTVSS
VL: DIQMTQSPSSLSASVGDRVTITCKASQDVSTAVAWYQQKPGKAPKLLIYSASYLYTGVPSRFSGSGSGTDFTFTISSLQPEDIATYYCQQHYSTPRTFGQGTKLEIK
With B4, the association response in assay [1] is 0.01 nm; in assay [2], 0.02 nm; in assay [3] it was 0.31 nm; in assay [4] it was 0.01 nm; in [5], 1.06 nm; in [6], 0.01 nm. The association response in [7] was -0.01 nm; in [8] it was 0.13 nm; in assay [9] it was 0 nm; in assay [10] it was 0.05 nm; in [11], 1.39 nm; in [12], 0.8 nm. Moreover, the association response is -0.01 nm in assay [13], 0.29 nm in assay [14], 0.05 nm in [15] and 0.03 nm in assay [16].

B5: IgG1-CD134-GBR830 (antibody, INN chains, looked up, V domains shown)
VH: QVTLKESGPALVKPTQTLTLTCSFSGFSLSTSGMGVGWIRQPPGKALEWIAHIWWDDDKYYNTALKTRLTISKDTSKNQVVLTMTNMDPVDTATYYCARIDWDGFAYWGQGTLVTVSS
VL: EIVLTQSPATLSLSPGERATLSCRASSSVSYMHWYQQKPGQAPRPWIYATSNRATGIPARFSGSGSGTDYTLTISSLEPEDFAVYYCQQWSSNPWTFGQGTKVEIK
modifications: IgG1
Consider B5, for which the association response in [1] was 0.01 nm; in assay [2], 0.61 nm; in assay [3] it was 0.33 nm; in [4], 0.02 nm; in assay [5], 0.97 nm; in [6], -0.02 nm. Further, the association response in [7] came out at 0 nm; in assay [8], 0.13 nm; in assay [9], 0.01 nm; in [10], 0.07 nm; in assay [11], 1.08 nm; in [12], 0.84 nm. For the same molecule, the association response in [13] is -0.01 nm; in assay [14], 0.28 nm; in assay [15], 0.02 nm; in [16], 0.19 nm.
